The values that follow come from patent publication EP4782465A1 (Shanghai Mabgen Biotech Ltd., dated 2026).

The assay concerns the target Insulin receptor of C2C12 mouse myoblasts (mouse, UniProt P15208 28-1372). In words: cell-based or functional assay.

Insulin receptor of C2C12 mouse myoblasts, sequence (P15208 28-1372): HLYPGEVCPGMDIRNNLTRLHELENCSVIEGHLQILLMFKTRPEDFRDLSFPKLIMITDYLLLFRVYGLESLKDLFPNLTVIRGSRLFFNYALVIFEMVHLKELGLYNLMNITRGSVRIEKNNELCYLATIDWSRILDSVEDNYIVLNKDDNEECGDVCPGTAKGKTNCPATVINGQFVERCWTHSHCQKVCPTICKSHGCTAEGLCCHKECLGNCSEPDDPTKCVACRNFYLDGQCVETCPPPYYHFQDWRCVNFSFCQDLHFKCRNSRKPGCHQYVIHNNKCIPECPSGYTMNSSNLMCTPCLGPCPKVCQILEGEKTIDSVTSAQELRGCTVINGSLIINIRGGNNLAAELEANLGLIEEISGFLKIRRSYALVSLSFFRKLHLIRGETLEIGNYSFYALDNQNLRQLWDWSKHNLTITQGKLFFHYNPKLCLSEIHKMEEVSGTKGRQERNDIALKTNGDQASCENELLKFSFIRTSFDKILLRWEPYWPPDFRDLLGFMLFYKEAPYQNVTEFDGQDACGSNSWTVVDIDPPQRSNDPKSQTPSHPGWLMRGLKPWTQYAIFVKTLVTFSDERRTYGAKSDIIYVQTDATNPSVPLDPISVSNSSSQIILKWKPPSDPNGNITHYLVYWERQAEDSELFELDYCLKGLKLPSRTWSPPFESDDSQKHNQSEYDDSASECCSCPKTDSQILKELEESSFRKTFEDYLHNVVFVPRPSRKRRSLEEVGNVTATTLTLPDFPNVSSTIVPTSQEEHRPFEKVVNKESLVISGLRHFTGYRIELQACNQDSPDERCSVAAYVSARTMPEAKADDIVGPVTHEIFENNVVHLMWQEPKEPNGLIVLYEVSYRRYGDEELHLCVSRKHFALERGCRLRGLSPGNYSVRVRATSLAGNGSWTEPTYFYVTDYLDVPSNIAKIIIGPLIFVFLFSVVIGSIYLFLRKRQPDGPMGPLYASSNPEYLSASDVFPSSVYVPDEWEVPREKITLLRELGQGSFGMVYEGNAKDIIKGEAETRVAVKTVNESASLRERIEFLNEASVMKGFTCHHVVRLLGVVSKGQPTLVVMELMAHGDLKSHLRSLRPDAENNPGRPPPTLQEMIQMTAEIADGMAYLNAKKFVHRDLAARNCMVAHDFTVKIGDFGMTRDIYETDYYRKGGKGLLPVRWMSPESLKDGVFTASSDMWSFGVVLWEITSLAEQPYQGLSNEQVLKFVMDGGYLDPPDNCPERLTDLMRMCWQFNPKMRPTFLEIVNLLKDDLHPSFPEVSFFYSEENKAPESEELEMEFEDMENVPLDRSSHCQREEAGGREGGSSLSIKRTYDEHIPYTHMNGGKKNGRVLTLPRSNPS

B1: Fusion protein 1 (insulin analog 1 + L2 + IgG2 Fc1) (Fc fusion)
chain: FVNQHLCGEHLVEALYLVCGERGFHYGGGGGGSGGGGGIVEQCCESICSLEQLENYCGGGGGQGGGGQGGGGQGGGGGECPPCPAPPVAGPSVFLFPPKPKDTLMISRTPEVTCVVVDVSHEDPEVQFNWYVDGVEVHNAKTKPREEQFNSTFRVVSVLTVVHQDWLNGKEYKCKVSNKGLPAPIEKTISKTKGQPREPQVYTLPPSREEMTKNQVSLTCLVKGFYPSDIAVEWESNGQPENNYKTTPPMLDSDGSFFLYSKLTVDKSRWQQGNVFSCSVMHEALHNHYTQKSLSLSPG
Turning to B1, the “AKT phosphorylation activity (EC50)” value worked out at 490 nM.
